Assay results from the domain aggregation screens of Martell et al. (2025).

Experiment: soluble fraction after stress (log2 fold change); higher = more stays soluble; pooled small domains, quantitative proteomics
Settings: stress: pH 4
How it was run: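 Values are log2 fold changes, and higher ones mean more of the domain stayed soluble. Each fold change reflects the soluble amount of a domain after acid stress and is taken as a measure of aggregation propensity. The stress was pH 4, applied to pooled custom libraries of small protein domains analysed by high-throughput quantitative proteomics.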

First: HMAVPAALVQAWLELSRRMVAGTQDVGERFAEEARKMHYGETEDRGIRGQATLTEVRDLLDEGIEVLPLLL
Second: HMAVPLVRGTVTSSVGTVLLLSVGERDFFLSEGEEKDGVLLQSLSEKSAVVVVSGRAYTLSL
The “soluble fraction (log2)” value of the first is lower: -0.725 for the first, -0.435 for the second.

Going from “HMAVRLADMAAEKIRKMIIENKFDAGEPLSEMRLAEMFNVSRTPIREAIAILEQEGLLTTVHGKGAFIS” to “HMAVSDAAEEYGKAGTPLVILAGKEYGSGSSRDWAAKGPYLQGVRAVLAESYERIHRSNLVGMGIVPLTYK”, the “soluble fraction (log2)” value rises from -0.637 to 0.109.

Going from “HMAVSDPTAGGIKALMYPNPAQDRLSVALDIPAGLDKQAQMTVTDMMGRVVTQQQVTLNDGFQVFEL” to “HMAVSSYSVKRYIRNMIQAEDPSAPFSDEALRLALLAHGIAVSRRVVTKYRMAMDIPSSSQRRKR”, the “soluble fraction (log2)” value falls from 0.209 to -0.12.

First: HMAVSTFGRITASSLNVRSGPSTDHEKVGSLAAGRVVELLEESDGWYRIENGYISTEYVTIVDPSQ
Second: HMAVTEVKTTAVVNMRSSDSEKADKLGKAQIGDTFRVLEQRANGWTKLTDGTQEFFIKSEYLEAIA
The “soluble fraction (log2)” value of the first is lower: -1.33 for the first, 0.0485 for the second.

Compared with “HMAVVAPLAGSVARVLVADGDEIEAGQVLLVLEAMKMETEITAPKAGKVGAILVGKGDSVQGGQGLR”, “HMAYLTGFHAIEELIRAGKAKGPLLVANAGPRARTIMSLATDNKIRIDRLGEHELNRLAPGNRGIALYVE” is higher in “soluble fraction (log2)” value: -0.249 for the first, ≥ 0.43 for the second.

Going from “HMDAAYVYVIGTRVNQRAGPSTSNAVMGVLSEGTRVETLRDEGQWTQIRSNFGTGWMSSSFLSSVAP” to “HMDADRILHKTLKPRELEIYQLIKAYLEEHSQIANAKVQEISGLSEATTRRYLNIFVEFGLLKTS”, the “soluble fraction (log2)” value falls from 0.124 to -0.164.

Going from “HMDADTVGQIRVVKQILDDGRLIVVDASGNPVLVRRSSALSLTAISQGDRIIVDPSVRLAIELLPNE” to “HMDAEELNSKAKDEFTWLEDDESETNLEYRKMVSSEDMAIVAKVAPALAAKLKYQLAHAATNMV”, the “soluble fraction (log2)” value falls from 0.148 to -0.529.

First: HMDAEVEHLFRIIAELKEKNVAIIYISHKMDEIFRISDDITVYRDGEYIATDRAENLNVDKVIQLMVGREV
Second: HMDAEWRTLTLAPEQHQQRLDRALADSLPEFSRSYVQQLIDTGMVRVNGVLAAKSAQRVKALDQVQVELR
The “soluble fraction (log2)” value of the first is lower: -0.538 for the first, -0.186 for the second.

First: HMDAGIVVPDTYNKPLAEAVASLEGEGFRTEKKEGYSDTVAKGNVMSQNPEAGTNAERGSTVTIVISQGPQ
Second: HMDAINYEDFQLLIKQRGSFKVAFEDIMFSTKVAIEKKEDFYDFVTKLIDNGFNNMAYNYLEGFQD
The “soluble fraction (log2)” value of the first is higher: 0.22 for the first, -2.34 for the second.

Going from “HMDAISYTQFMEEAKQGRINKVEVQGRTLMVTPTDGKAYSLTSPGDLWMTTDLMKYGVNVYGAE” to “HMDALKAVYQWVTRTMMKNQTGVMQTLPNRDLIELNTQITAQRLMQAGVDPTTLKNANQVENAVNIIESR”, the “soluble fraction (log2)” value rises from -0.527 to -0.193.

Going from “HMDAMGAVGIARAFISAGERGGDISDGLEHMHGKLLRLSSLMYTRSGKKMAARRHELLSSFVQALEEEIK” to “HMDAMQAFPNPTVDEIHFVTPTTGRVYNAHGQLVMVLKNAQLVNVRQWSAGQYVIVREDGYAVRWIK”, the “soluble fraction (log2)” value falls from -0.0591 to -0.43.

Going from “HMDAPQRVTYLLPHSRGEVVSWLHRQGEVVAQEYEAEGVRVVVDLRYAQIRQAAKQFDVLPAEG” to “HMDAPRFAAGDAVRVAGLVSKPQHNGRAGSVLSYDPVSLRYIVKVDGEDEPLKLKPENVLMPA”, the “soluble fraction (log2)” value rises from -0.656 to 0.0764.

First: HMDAQLRVPDLTPYNYSELKENTSLYEGFTIEVVEERSTGDYAAGTVLDQDPKADTLIQDGDSTVIKLVIA
Second: HMDASFTYSLETHPAGVLVRVDGLEYETPFSILLPQGVHRLEVAGEERFFYLSETTHQFLEID
The “soluble fraction (log2)” value of the first is higher: -0.115 for the first, -0.714 for the second.

First: HMDATGDPIADRILQALQLGELTRTQVNNVFQRHLAAARISQALNFLRSLKRADMRMEETAGRSGEVWFAI
Second: HMDAVKKKVQSTNTLLDVLKQMLPQTSSNTLRKMLTNQRITVDGETIHRAKHTVEKDQTVEIHPKP
The “soluble fraction (log2)” value of the first is lower: -0.254 for the first, ≥ 0.43 for the second.

First: HMDAVSYTQFMQDAKAGRIKKVIVHQSGILDVTTTEGRRFNLTSPGDLWMVGDLVKDGVDVVGAP
Second: HMDAVTYAKGSSGETVREIQQLLLDWGYYSGEVDGIFGSRTEDAVEYFQRKNGLTVDGKVGPATLEALGIS
The “soluble fraction (log2)” value of the first is higher: 0.139 for the first, -0.349 for the second.
